Data on 13 sequences can be found in the DeepSol protein solubility set.

This data set can be described thus: soluble on expression in E. coli; label from the status in PepcDB or PDB records.
Turning to “MKVLDLIDKYYPQDNELKHILNVHSRSVADKALWIAGKHPELNLDTVFLEEAAMLHDIGIFLTHAPGIQCFGTEPYICHGYLGAGLVRKEGFPRHALVCERHTGAGLSLKDIMDQKLPVPHREMLPVSMEEQVICFADKFFSKTHLDREKTVEGARKSIAKYGDEGLQRFNNWCKLFL”, the “soluble on expression in E. coli” value is listed as “not soluble”.

For the sequence “MRTHDDTWDIKTSVGTTAVMVAAARAAETDRPDALIRDPYAKLLVTNTGAGALWEAMLDPSMVAKVEAIDAEAAAMVEHMRSYQAVRTNFFDTYFNNAVIDGIRQFVILASGLDSRAYRLDWPTGTTVYEIDQPKVLAYKSTTLAEHGVTPTADRREVPIDLRQDWPPALRSAGFDPSARTAWLAEGLLMYLPATAQDGLFTEIGGLSAVGSRIAVETSPLHGDEWREQMQLRFRRVSDALGFEQAVDVQELIYHDENRAVVADWLNRHGWRATAQSAPDEMRRVGRWGDGVPMADDKDAFAEFVTAHRL”, the “soluble on expression in E. coli” value is “soluble”.

Consider “MGSDKIHHHHHHKESGSLLNLLTDAEIERTEKIVISGNGLEEKDFAVLKAMLIRHALREVDIENTSTRAITERAFEGCSNLSAIKLPKYLVNTGWYAFEDCSGLMDIELPVSVETIANSFRGCSSLTSITLGRRVKSLDSQSFYLCSNLREVHCKGSIPPSCKQDSFKGLYETCTLYVPEGCKRDYTFADGWLNFGNIREEYVEPALSLRVNLEGGTFAWQLYPLYDGNGGIIVNHFYPGQDYLIDVEKGETIVFHIAEENTYFSNWKIDTILLNGEDITSQVTENDLLYLNIDRDSKLEIVMKDLSVTSNDVIENPQDIKISTLDNKVLIQNITTGERVNVYNVLGVLVHSVVVEAMDYEVQLPKGEIYLIQIGKKTVKLKL”, for which the “soluble on expression in E. coli” value was “not soluble”.

Take “MKQEETLTKVKVAEVTHSIFYAPLYVAESKGFFKEEGLDVDVNTTWGGDKTMTSLLSNGSDIALVGSETSIYVEAQGAKDPVINFAQLTQTDGTFLVAREDVEHFDWDQLKGKTFLGQRKGGMPQMVGEYVLNKHKIDPHKDIDLIQNIDFANIANAFASGTGEYVQLFEPQLLSLRKKASAISWLHSEKNQERFLIRLLWRNKAILEHHHHHH”: the “soluble on expression in E. coli” value is “not soluble”.

Regarding “MGSSHHHHHHSSGLVPRGSHMRTVTGAILAMNLEVKDFVHRDVEEADRRLREIGARKILLQLPDGLKPYAFDYFTYLSQRYDVILSSSPVYGACDIGPSYLYDRVDAIVQVGHSIMRNVKYPRPVIFIEHYRTVDVEDINTEALKNYRRIGLIYSIQYRPVADRVKRILESKGFEVIIGRSDRRMTYDGQVLGCNFSSVHSVEAEVEAFVIVSTGSFHALGSQISTERPVFLLDLNEMSLRSMEKEADTFIRKRYAQIYRAMDAKRICFLVDTRIGQRREKLARMLMDRARDLGKEAVLAYTDNISDQDIQNMGCDLAVYTGCPRVPIDDQDRFTVPVLTPAEFSMAFFKSSKRYVLDEIVSVDEFTDQ”, the “soluble on expression in E. coli” value was “soluble”.

Take “MGSDKIHHHHHHMITTSNITMQFGVKPLFEKVSVKFGEGNRYGLIGANGSGKSTFMKILGGDLEQTAGEVAIENGLRLGKLRQDQFGYEDQRVIDVVMMGHTEMWAAMSERDAIYANLEATEDDYMRAADLEAKFAEYDGYTAEARAGELLMGVGIPVEQHFGPMSEVAPGWKLRVLLAQALFSNPDILLLDEPTNNLDINTIRWLEHVLNERNSTMIIISHDRHFLNSVCTHMADLDYNTIRIYPGNYDDYMIASAQARERQLSSNSKAKERIQELQEFVARFSANKSKARQATSRLKQVDKLKSEMVEVKPSSRQNPFIRFEMDDKFKLHRQAVEVEGLSKAYDNKVLFKDLNLILEAGARLAIIGPNGAGKTSLIKLLAGAFEPAYAEGLTADRGTIKWAEKAQIGYFAQDHEADFDSDATLTEWMREWGQEGDDEQVIRGTLGRLLFGGDEVGKPVRVLSGGEKGRMLYGKLILQKPNVMIMDEPTNHMDMESIESLNMALEKYKGTLIFVSHDRQFVSSLATHVLELDGKGGYDYYTGNYEDYLASKGLE”: the “soluble on expression in E. coli” value is listed as “not soluble”.

As for “MTGGFTPDSGRYHLYISHACPWAHRTMIFRTLKGLEDHITISAVHPDMLGEGWTFEPDDNGATGDTLYNSAFARDIYTRADPRFTGRVTVPILWDKQRETIVSNESSEIIRMFNAAFNGLTGNSDDYWPEPLRDAIAPVNERIYDTFNNGVYKAGFATTQQAYDAAIVPLFDTLDWLEERLSHNRYLMGDQLTEADWRLFTTLVRFDPVYHLHFKCNRKRIVDYPNLWGYTRELYQTPGVADTVNFDHIVRHYHYSHETINPNRIIPINPVLDFHRPHGRGLEHHHHHH”, the “soluble on expression in E. coli” value is “not soluble”.

With “MTSSSSPSQDTKRLAQTYPEGLRADALMEEDVAWNRGNDSQWDGEQFDRSDRAALRRVAGLSTELEDVTEVEYRQLRLERVVLVGVWTSGTVQDAENSLAELAALAETAGALVLDGVVQRRDKPDAATYIGSGKAEELRDVVLHTGADTVICDGELSPGQLIHLEDVVKVKVIDRTALILDIFAQHAKSREGKAQVALAQMQYMLPRLRGWGQSLSRQMGGGKGGGLATRGPGETKIETDRRRIREKMAKMRREIAEMKTGREIKRQERKRHKVPSVAIAGYTNAGKSSLLNRLTGAGVLVENALFATLDPTVRRAETPSGRLYTLADTVGFVRHLPHHLVEAFRSTMEEVGDSDLILHVVDGSHPVPEEQLAAVREVIRDVGATDVPEIVVINKADMADPLVLQRLLRIEKRAIAVSARTGQNIDQLLALIDNELPRPSVEIEALVPYTHGKLVARAHDEGEVISEEHTPEGTLLKVRVHEELAAELAPYVPAPLALEHHHHHH”, the “soluble on expression in E. coli” value is listed as “not soluble”.

Consider “MSGVLNTVDQRTNLVGENRLELLLFTLNSRQLFAINVFKVKEVIKLPPLTKLPGSHYNIRGVASLRGEAVPVIDLRCSIGFPPLRGEAEEENLIVTEYNRSVQGFLVGPVRNIINTAWTEIQPPPSTSGRSNYLTAITQVKDGDTSQIVEIIDVEKVLAEIVHYDVTISEDILDHDLSQSMVGRN”, for which the “soluble on expression in E. coli” value is “not soluble”.

For the sequence “MGSDKIHHHHHHSEDINRNPLLPTKEDEKMDGVIYGAYLPNLEKSVIPIGTASESTEPVNRYQIGVNLAGDAWAGYMSPRDNKFNGSKNFTNYFMYENWVNYVYSFMVTDVYSPWMQIKRISQDEGTRNDEIYALAQIIKIAALHRTTDMFGPIPYSQVGKGSFKVAYDSQESVYRSFLKELEEAVQTLDDYSNKSKEVLPAFDIVYNGDVNKWMRFANSLMLRLAIRVRFADAGLAKEYAEKAVKHPAGLINSKELAAQMGKGAGLQMKNPLKVINEEYNDTRMGATIYSYLAGYNDARAAVYFVKNNGFKAVRCGIAKSGDAYNGFTRPNVHEDDPLYWMKASEVCFLKAEGALAGFDMGGSAGDFYNAGIRMSFSENGLDNSSAETYLKDSTRKPANYTDTSNGELSANAPSSITIRWENGATEEEKLERIITQKYLAIFPNGQEAWTEWRRTGYPRQIVVAENKTNSAVLIGNGYDLGGVRRLPYPRTEYEQNGENLHNAISQYLGGVDNAATKVWWDKKSK”, the “soluble on expression in E. coli” value is “not soluble”.

Consider “MPDTSPDLPAMSPLAVYRQAVEQRGFAPDEAQRRAAEALERCFQALHEAHRHGAIQGVYLWGPVGRGKTWLMDHFYQCLRVPARRQHFHHFMQWVHQRQFELTGTADPLRALARELARDVRVLCFDELFVSDIGDAILLGSLLRIMFEEGVVLVATSNQPPEQLYADGFNRERFLPAIEAIQRHMAVVAVDGGQDHRLHPGRAEQRYWVVEAGQASGFAELFARLSAGEAASTQPIELGHRPLAVHRHSESVLWCSYAQLCEAPLSALDFIGLCDRYRAILMDDLPCLSASQREGRIARGTEDGAQLVEAGDRELPQLSVHDDGVRRFIALVDECYDRKVPLYLEARVPLEALYTEGYLAFAFRRTLSRLREMQLARFGSDSAG”, for which the “soluble on expression in E. coli” value is reported as “not soluble”.

Consider “TNGFLKILGLGSGHDDKDKLSSEELRTVVHEAGGLIPRRHQDMLISILDLEHVTVNDIMVPRSEITGIDINDDWKSISRQLTHSPHGRIVLYRDQIDEVVGMLRLRESYRLMLEKNEFTKETLLRAADEIYFIPEATPLNSQLLKFQRNKERIGLVVDEYGDIQGLITLEDILEEIVGEFT”, for which the “soluble on expression in E. coli” value was “not soluble”.

Take “MGSDKIHHHHHHMRYESSKKILVIEDDAVTRNLFLEVLEAQGFDTIGAEDGVAGIQKAQEHLPDLVICDIQMPDMDGYTVLARLRQDPHTAIIPFIFLTGSNTQTDVRKGMESGADDYLTKPSSIEDFLRAIAVRLEKQAFLRYWYATNSHQTAQSPPSSFNSESIFPSVPQLQAVFDFIEANYRQGITLSDVALAVGYSPAYLTNRVAKQTGETVNAWIVKRRMAAARPLLRDTNQTIDQIAIALGYQNTCHFSRQFRQHHGLSPKTWRKQQQLLQSSKNAKLQLIKNHDALEKLVPLGC”: the “soluble on expression in E. coli” value is “not soluble”.
